# In patent US20130302346A1 (LEXICON PHARMACEUTICALS, published 2013):
# T1: Human NOTUM (human, UniProt Q6P988 20-496)
# T1 sequence: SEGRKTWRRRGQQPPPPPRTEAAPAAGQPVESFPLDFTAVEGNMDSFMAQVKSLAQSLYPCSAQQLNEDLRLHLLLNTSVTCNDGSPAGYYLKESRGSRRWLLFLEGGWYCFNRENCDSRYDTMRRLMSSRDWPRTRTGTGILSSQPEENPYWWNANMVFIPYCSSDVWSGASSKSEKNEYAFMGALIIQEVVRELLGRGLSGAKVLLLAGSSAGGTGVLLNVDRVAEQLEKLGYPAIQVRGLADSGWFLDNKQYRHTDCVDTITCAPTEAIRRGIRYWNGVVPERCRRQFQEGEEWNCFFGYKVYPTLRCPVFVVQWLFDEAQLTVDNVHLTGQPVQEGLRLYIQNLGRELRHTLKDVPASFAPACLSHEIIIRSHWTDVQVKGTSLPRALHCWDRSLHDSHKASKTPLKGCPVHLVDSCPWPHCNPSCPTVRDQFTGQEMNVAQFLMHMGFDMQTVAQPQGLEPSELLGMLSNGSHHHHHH
# T2: Mouse NOTUM (mouse, UniProt Q8R116 20-503)
# T2 construct: also called recombinant mouse NOTUM
# T2 sequence: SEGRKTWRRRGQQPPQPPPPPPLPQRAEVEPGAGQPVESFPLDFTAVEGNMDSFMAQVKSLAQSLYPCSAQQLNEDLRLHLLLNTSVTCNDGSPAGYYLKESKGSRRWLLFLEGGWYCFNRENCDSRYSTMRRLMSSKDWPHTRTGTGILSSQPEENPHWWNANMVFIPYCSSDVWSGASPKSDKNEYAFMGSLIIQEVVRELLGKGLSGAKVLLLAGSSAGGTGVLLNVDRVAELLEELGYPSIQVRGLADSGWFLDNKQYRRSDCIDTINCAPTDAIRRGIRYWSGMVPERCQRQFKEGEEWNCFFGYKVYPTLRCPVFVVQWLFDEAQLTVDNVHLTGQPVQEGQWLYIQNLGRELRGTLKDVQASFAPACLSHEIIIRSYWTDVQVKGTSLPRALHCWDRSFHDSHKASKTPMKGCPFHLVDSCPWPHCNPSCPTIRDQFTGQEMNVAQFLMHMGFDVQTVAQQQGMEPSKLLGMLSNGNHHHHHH
# T3: H-M
# T3 construct: Drawn on the sheet as human N-terminal part and mouse C-terminal part; Produced by transient transfection of HEK293F and used as conditioned medium; also called Human-mouse chimeric NOTUM
# T3 single chain: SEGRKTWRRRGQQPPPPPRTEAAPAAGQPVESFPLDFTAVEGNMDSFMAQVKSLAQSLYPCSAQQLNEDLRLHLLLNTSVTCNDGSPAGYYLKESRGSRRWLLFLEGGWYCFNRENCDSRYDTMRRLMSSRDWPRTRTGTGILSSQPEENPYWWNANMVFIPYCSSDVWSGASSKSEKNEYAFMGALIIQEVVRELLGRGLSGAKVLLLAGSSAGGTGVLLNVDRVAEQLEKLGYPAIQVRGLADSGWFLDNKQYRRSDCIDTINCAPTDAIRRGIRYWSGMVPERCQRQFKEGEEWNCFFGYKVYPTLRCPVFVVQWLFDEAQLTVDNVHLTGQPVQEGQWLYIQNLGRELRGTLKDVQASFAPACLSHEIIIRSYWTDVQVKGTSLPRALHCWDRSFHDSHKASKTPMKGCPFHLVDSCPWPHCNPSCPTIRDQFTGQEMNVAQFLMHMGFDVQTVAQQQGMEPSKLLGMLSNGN
# T4: M-H
# T4 construct: Drawn on the sheet as mouse N-terminal part and human C-terminal part; Conditioned medium from transfected HEK293F; also called Mouse-human chimeric NOTUM
# T4 single chain: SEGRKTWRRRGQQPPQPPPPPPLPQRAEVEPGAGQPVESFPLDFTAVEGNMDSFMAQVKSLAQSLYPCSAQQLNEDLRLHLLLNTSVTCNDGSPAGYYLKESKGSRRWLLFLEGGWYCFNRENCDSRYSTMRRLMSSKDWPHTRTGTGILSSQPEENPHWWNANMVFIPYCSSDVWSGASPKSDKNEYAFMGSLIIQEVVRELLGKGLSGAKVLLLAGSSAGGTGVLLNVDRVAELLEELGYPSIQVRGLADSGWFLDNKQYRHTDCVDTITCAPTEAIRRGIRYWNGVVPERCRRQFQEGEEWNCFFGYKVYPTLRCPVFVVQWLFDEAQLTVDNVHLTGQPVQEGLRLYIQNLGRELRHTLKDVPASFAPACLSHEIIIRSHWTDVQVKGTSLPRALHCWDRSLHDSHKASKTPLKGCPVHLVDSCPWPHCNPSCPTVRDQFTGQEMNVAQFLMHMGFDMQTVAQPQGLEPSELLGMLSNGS
# T5: M-H-M
# T5 construct: Drawn on the sheet as mouse up to the M177 line, a human middle segment, then a mouse C-terminal part; Conditioned medium from transfected HEK293F; also called Mouse-human-mouse chimeric NOTUM
# T5 single chain: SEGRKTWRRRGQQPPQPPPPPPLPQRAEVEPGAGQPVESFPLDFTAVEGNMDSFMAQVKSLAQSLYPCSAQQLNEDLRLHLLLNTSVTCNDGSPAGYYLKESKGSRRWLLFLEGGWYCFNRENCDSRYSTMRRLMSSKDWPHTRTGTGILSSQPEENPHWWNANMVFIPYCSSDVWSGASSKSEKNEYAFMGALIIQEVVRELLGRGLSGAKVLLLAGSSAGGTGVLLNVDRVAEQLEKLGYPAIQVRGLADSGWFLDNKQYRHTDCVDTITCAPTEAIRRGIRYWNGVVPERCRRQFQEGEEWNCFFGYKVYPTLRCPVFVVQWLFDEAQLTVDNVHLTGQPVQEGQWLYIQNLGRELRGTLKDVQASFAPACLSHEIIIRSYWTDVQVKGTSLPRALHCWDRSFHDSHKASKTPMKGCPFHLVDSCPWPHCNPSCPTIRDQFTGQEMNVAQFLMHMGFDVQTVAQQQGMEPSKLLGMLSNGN
# How the values were obtained:
# Human NOTUM = molecular target: T1, Human NOTUM; experiment: cell-based or functional assay
# Mouse NOTUM = molecular target: T2, Mouse NOTUM; experiment: ELISA (column 'Mouse NOTUM binding')
# H-M = molecular target: T3, H-M; experiment: ELISA on conditioned medium of HEK293F transfected with the NOTUM construct (Example 6.7)
# From the text: (§1) The sequences of those proteins are shown in Section 7 (Table of Sequences). The conditioned media were used in ELISA format to determine antibody specificity. […] Within this region, mouse and human NOTUM differ at five positions (R115K, D141S. R150K, R154H, and Y171H, based on the human sequence numbering). Human NOTUM point mutants were generated by transient transfection of constructs expressing human NOTUM with the mouse amino acid at each of these five positions and the point mutants were all shown to be functional in the OPTS assay.
# M-H = molecular target: T4, M-H; experiment: as above
# From the text: as §1
# M-H-M = molecular target: T5, M-H-M; experiment: as above
# From the text: as §1
OPTS IC50 (nM; human NOTUM) (Human NOTUM) [nM],Wnt signaling IC50 (nM; human NOTUM) (Human NOTUM) [nM],binding result (Mouse NOTUM),binding result (H-M),binding result (M-H),binding result (M-H-M),Binder
6.44,5.71,no binding,binds,no binding,no binding,"MAb 1.802 (antibody, V domains shown, Mouse monoclonal antibody from Campaign 1 (raised against human NOTUM), IgG1) VH: EVQLVESGGGLVKPGGSLKLSCAASGFTFSDYGMHWFRQAPEKGLEWVAYISSGSRTVYYADTVKGRFTISRDNAKNTLSLQMTSLRSEDTAMYYCARKHYNGGYFDVWGTGTTVTVSS VL: DIVLTQSPASLAVSLGQRATISCRASKIVSTSGYSYMHWYQQKPGQPPKLLIYLASNLESGVPARFSGSGSGTDFTLNIHPVEEEDAATYYCQHSRELPPTFGSGTKLEIKR"
7.62,6.88,no binding,binds,no binding,no binding,"MAb 1.815 (antibody, IgG1, V domains shown, Mouse monoclonal antibody from Campaign 1, IgG1) VH: DVQLLESGGGLVQPGGSRKLSCAASGFTFSDFGMHWVRQAPEKGLEWVAYSSSGGTTVYYADTVKGRLTLSRDNSKNTLFLEMTSLRSEDTAMYYCARASYDGGYFDCWGQGTSLTVSS VL: DIVLTQSPASLAVSLGQRATISCRASKSVSTSGYSYIHWYQQKPGQPPKLLIYLASDLESGVPARFSGSGSGAAFTLNIHPVEEEDAATYYCHHSRELPFTFGSGTKLEIKR"
10.1,1.7,no binding,binds,no binding,no binding,"MAb 1.846 (antibody, IgG2b, V domains shown, Mouse monoclonal antibody from Campaign 1, IgG2b) VH: EVQLVESGGDLVKPGGSLKLSCAASGFTFSDYGMHWLRQAPEKGLEWVAYISSGSTTLSYANTMKGRFTISRDNAKKTLSLQMTSLRSEDTAIYYCARKNYNGGYFDVWGTGTTVTVSS VL: DIVLTQSPASLVVSLGQRATISCRASKSVSESGYSYMHWYQQKPGQPPKLLIYLASNLESGVPARFSGSGSGTDFTLNIHPVEEGDATTYYCQHSRVLPPTFGSGTKLEIKR"
